Data on three molecules can be found in article PMC8998196, “A Second Gamma-Glutamylpolyamine Synthetase, GlnA2, Is Involved in Polyamine Catabolism in Streptomyces coelicolor” (International Journal of Molecular Sciences, 2022).

One data set deals with T1, GlnA3 (His-GlnA3) (Streptomyces coelicolor, UniProt Q9KZC7).
T1 construct: His-tagged GlnA3
T1 sequence (Q9KZC7 1-466): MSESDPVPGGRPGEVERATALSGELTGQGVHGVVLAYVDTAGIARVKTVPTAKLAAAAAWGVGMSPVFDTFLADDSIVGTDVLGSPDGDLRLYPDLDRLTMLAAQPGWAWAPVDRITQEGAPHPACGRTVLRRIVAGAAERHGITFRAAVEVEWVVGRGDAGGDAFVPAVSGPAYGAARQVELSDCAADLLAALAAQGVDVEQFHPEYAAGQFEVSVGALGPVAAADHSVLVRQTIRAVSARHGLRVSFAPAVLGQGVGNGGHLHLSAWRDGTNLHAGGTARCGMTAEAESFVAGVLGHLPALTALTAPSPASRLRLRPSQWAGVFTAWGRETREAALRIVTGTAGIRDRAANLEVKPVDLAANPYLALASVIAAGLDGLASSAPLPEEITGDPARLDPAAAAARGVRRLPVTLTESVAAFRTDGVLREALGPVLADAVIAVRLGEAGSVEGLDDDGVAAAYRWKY
The data set is described as follows: phosphate release (molybdate) modified GS assay. The format is biochemical. Particulars: 50 mM substrate, 10 µg enzyme, co-substrates glutamate and ATP, 30 °C, 5 min.

Substrate in data set [1]: NCCCCN
The data set can be described thus: phosphate release (molybdate) modified GS assay, Michaelis-Menten fit. As to conditions: co-substrates glutamate and ATP, Mg2+, 30 °C, 5 min. The format is biochemical, Streptomyces coelicolor.

Substrate in data set [2]: N[C@@H](CCC(=O)O)C(=O)O
The data set is described as above. The format is biochemical, Streptomyces coelicolor. As to conditions: polyamine and ATP as co-substrates, Mg2+, 30 °C, 5 min, L form not given.

Substrate in data set [3]: Nc1ncnc2c1ncn2[C@@H]1O[C@H](COP(=O)(O)OP(=O)(O)OP(=O)(O)O)[C@@H](O)[C@H]1O
Described as above. As to conditions: polyamine and glutamate as co-substrates, Mg2+, 30 °C, 5 min. The format is biochemical, Streptomyces coelicolor.

On to `NCCCCNCCCN` [spermidine], for which the “phosphate release (molybdate) modified GS assay” value at GlnA3 (His-GlnA3) was “GlnA3 demonstrated a significant specificity towards spermidine and spermine, compared with GlnA2”.

`NCCCNCCCCNCCCN` [spermine]: the “phosphate release (molybdate) modified GS assay” value at GlnA3 (His-GlnA3) was “GlnA3 demonstrated a significant specificity towards spermidine and spermine, compared with GlnA2”.

B1: GlnA2 (His-GlnA2) (Streptomyces coelicolor A3(2)) (protein)
chain: MDKQQEFVIRTLEERDIRFVRLWFTDVLGFLKSVAVAPAELEQAFDEGIGFDGSAIEGFARVYESDMIAKPDPSTFQVLPWRAEAPGTARMFCDILMPDGSPSFADPRYVLKRALARTSDLGFTFYTHPEIEFFLLKDKPVDGSVPTPADNSGYFDHTPQNIGMDFRRQAITMLESMGISVEFSHHEGAPGQQEIDLRYADALSTADNVMTFRLVMKQVALEQGLQATFMPKPFSEYPGSGMHTHLSLFEGDRNAFYESGAEYQLSKVGRSFIAGLLRHAAEISAVTNQWVNSYKRIWGGTERTAGAGGEAPSYICWGHNNRSALVRVPMYKPGKTGSARVEVRSIDSGANPYLTYAVLLAAGLKGIEEGYELPPGAEDDVWALSDAERRALGIEPLPQNLGEALALMERSDLVAETLGEHVFDFFLRNKRQEWEEYRSQVTAFELRKSLPVL
notes: dodecamer only modelled
B1: the Km (usually the concentration of substrate that gives half-maximal velocity) in data set [1] was 0.55 ± 0.1 mM; in data set [2], 1.06 ± 0.2 mM; in data set [3], 0.13 ± 0.1 mM.
